Experimental data as given in paper doi:10.1101/375832, “A Ubiquitin-Binding Domain that Does Not Bind Ubiquitin” (bioRxiv, 2018).
Where a chain is given by its changes, count along the chain named.

T1: FLAG-SMARCAD1, full-length, wild type, recombinant from E. coli (human, UniProt Q9H4L7 1-1026)
T1 construct: SMARCAD1, human, full-length; Cloned in pET28a-SUMO; source: E. coli BL-21 CodonPlus (DE3)-RIL, purified (HisTrap, Heparin, ProSwift SAX-1S)
T1 sequence (looked up): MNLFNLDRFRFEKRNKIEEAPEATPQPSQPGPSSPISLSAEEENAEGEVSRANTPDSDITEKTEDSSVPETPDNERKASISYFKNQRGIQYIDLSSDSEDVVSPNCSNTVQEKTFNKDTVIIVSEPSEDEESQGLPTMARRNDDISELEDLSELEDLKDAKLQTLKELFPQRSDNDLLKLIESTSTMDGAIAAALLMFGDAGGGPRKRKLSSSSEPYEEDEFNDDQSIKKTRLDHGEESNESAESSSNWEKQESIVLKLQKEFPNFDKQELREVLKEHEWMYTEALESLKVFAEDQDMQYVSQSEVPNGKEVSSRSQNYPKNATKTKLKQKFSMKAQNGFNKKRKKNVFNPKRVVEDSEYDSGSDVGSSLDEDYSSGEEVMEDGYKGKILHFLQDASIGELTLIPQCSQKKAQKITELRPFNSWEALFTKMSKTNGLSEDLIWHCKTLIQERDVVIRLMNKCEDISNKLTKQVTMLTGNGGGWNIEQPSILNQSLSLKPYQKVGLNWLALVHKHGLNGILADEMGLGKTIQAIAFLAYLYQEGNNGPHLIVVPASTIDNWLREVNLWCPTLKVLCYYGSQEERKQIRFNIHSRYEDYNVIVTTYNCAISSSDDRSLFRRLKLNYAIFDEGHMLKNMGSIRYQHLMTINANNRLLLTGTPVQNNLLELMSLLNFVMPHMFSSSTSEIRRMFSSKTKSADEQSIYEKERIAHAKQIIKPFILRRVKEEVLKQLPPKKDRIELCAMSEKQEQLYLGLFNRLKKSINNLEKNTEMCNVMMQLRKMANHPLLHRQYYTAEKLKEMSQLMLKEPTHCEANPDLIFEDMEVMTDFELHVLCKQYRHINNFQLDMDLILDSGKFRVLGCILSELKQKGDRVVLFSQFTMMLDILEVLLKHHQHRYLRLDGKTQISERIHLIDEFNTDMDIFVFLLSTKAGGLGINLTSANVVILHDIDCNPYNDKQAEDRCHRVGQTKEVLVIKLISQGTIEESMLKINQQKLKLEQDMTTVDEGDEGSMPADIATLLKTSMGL

B1: FLAG-tagged SMARCAD1 CUE1,2 fragment (S95-N347), wild type (domain or fragment, human, UniProt Q9H4L7 95-347, looked up)
chain: SSDSEDVVSPNCSNTVQEKTFNKDTVIIVSEPSEDEESQGLPTMARRNDDISELEDLSELEDLKDAKLQTLKELFPQRSDNDLLKLIESTSTMDGAIAAALLMFGDAGGGPRKRKLSSSSEPYEEDEFNDDQSIKKTRLDHGEESNESAESSSNWEKQESIVLKLQKEFPNFDKQELREVLKEHEWMYTEALESLKVFAEDQDMQYVSQSEVPNGKEVSSRSQNYPKNATKTKLKQKFSMKAQNGFNKKRKKN
notes: SMARCAD1, human, residues S95-N347 encompassing both CUE domains; source: E. coli BL-21 CodonPlus (DE3)-RIL, purified (Ni-NTA, Mono Q if required)
B2: FLAG-tagged SMARCAD1 CUE1,2 fragment Q171A (domain or fragment, human, UniProt Q9H4L7 95-347, looked up)
chain: B1 chain with Q77A
notes: SMARCAD1, human, CUE1,2 fragment S95-N347; source: E. coli, purified; construct generated by GenScript
B3: FLAG-tagged SMARCAD1 CUE1,2 fragment L196A (domain or fragment, human, UniProt Q9H4L7 95-347, looked up)
chain: B1 chain with L102A
notes: as for B2
B4: FLAG-tagged SMARCAD1 CUE1,2 fragment D188A (domain or fragment, human, UniProt Q9H4L7 95-347, looked up)
chain: B1 chain with D94A
notes: as for B2
B5: FLAG-tagged SMARCAD1 CUE1,2 fragment P170A (domain or fragment, human, UniProt Q9H4L7 95-347, looked up)
chain: B1 chain with P76A
notes: as for B2
B6: FLAG-tagged SMARCAD1 CUE1,2 fragment E167A (domain or fragment, human, UniProt Q9H4L7 95-347, looked up)
chain: B1 chain with E73A
notes: as for B2
B7: FLAG-tagged SMARCAD1 CUE1,2 fragment L195A (domain or fragment, human, UniProt Q9H4L7 95-347, looked up)
chain: B1 chain with L101A
notes: as for B2
B8: KAP1, full-length, recombinant from E. coli (HA-KAP1) (natural protein, human, UniProt Q13263 1-835, looked up)
chain: MAASAAAASAAAASAASGSPGPGEGSAGGEKRSTAPSAAASASASAAASSPAGGGAEALELLEHCGVCRERLRPEREPRLLPCLHSACSACLGPAAPAAANSSGDGGAAGDGTVVDCPVCKQQCFSKDIVENYFMRDSGSKAATDAQDANQCCTSCEDNAPATSYCVECSEPLCETCVEAHQRVKYTKDHTVRSTGPAKSRDGERTVYCNVHKHEPLVLFCESCDTLTCRDCQLNAHKDHQYQFLEDAVRNQRKLLASLVKRLGDKHATLQKSTKEVRSSIRQVSDVQKRVQVDVKMAILQIMKELNKRGRVLVNDAQKVTEGQQERLERQHWTMTKIQKHQEHILRFASWALESDNNTALLLSKKLIYFQLHRALKMIVDPVEPHGEMKFQWDLNAWTKSAEAFGKIVAERPGTNSTGPAPMAPPRAPGPLSKQGSGSSQPMEVQEGYGFGSGDDPYSSAEPHVSGVKRSRSGEGEVSGLMRKVPRVSLERLDLDLTADSQPPVFKVFPGSTTEDYNLIVIERGAAAAATGQPGTAPAGTPGAPPLAGMAIVKEEETEAAIGAPPTATEGPETKPVLMALAEGPGAEGPRLASPSGSTSSGLEVVAPEGTSAPGGGPGTLDDSATICRVCQKPGDLVMCNQCEFCFHLDCHLPALQDVPGEEWSCSLCHVLPDLKEEDGSLSLDGADSTGVVAKLSPANQRKCERVLLALFCHEPCRPLHQLATDSTFSLDQPGGTLDLTLIRARLQEKLSPPYSSPQEFAQDVGRMFKQFNKLTEDKADVQSIIGLQRFFETRMNEAFGDTKFSAVLVEPPPMSLPGAGLSSQELSGGPGDGP
notes: KAP1 (TRIM28), human, full-length; also called TRIM28; TIF1β; source: E. coli BL-21 CodonPlus (DE3)-RP, purified (HisTrap, Heparin, Sephacryl S-400 gel filtration)
B9: FLAG-tagged SMARCAD1 CUE1,2 fragment Δ200-230 (domain or fragment, human, UniProt Q9H4L7 95-347, looked up)
chain: SSDSEDVVSPNCSNTVQEKTFNKDTVIIVSEPSEDEESQGLPTMARRNDDISELEDLSELEDLKDAKLQTLKELFPQRSDNDLLKLIESTSTMDGAIAAALLMFGTRLDHGEESNESAESSSNWEKQESIVLKLQKEFPNFDKQELREVLKEHEWMYTEALESLKVFAEDQDMQYVSQSEVPNGKEVSSRSQNYPKNATKTKLKQKFSMKAQNGFNKKRKKN
notes: SMARCAD1, human, CUE1,2 fragment S95-N347 with residues 200-230 deleted; source: E. coli, purified; construct generated by GenScript
B10: SMARCAD1 CUE1 fragment (S95-E237), wild type (domain or fragment, human, UniProt Q9H4L7 95-237, looked up)
chain: SSDSEDVVSPNCSNTVQEKTFNKDTVIIVSEPSEDEESQGLPTMARRNDDISELEDLSELEDLKDAKLQTLKELFPQRSDNDLLKLIESTSTMDGAIAAALLMFGDAGGGPRKRKLSSSSEPYEEDEFNDDQSIKKTRLDHGE
notes: SMARCAD1, human, residues S95-E237 spanning only the first CUE domain; also called wild type CUE1 fragment; source: E. coli BL-21 CodonPlus (DE3)-RIL, purified (Ni-NTA, Mono Q if required)

Assays:
Conditions in all cases: both partners purified
[1] = target: T2, KAP1 RBCC (S33-K434), purified (human, UniProt Q13263 33-434); assay: co-IP; purified SMARCAD1 fragments (CUE1,2, CUE1) and KAP1 RBCC, 9.6μg of each in a 240μL binding reaction, 1 hour at 4°C; immunoprecipitated with anti-FLAG M2 affinity gel for 3 hours at 4°C
T2 construct: KAP1 (TRIM28), human, residues S33-K434, RBCC domain; also called KAP1 S33-K434; Fragment 1; source: E. coli BL-21 CodonPlus (DE3)-RP, purified (Ni-NTA, Mono Q)

[2] = target: T3, KAP1 RBCC (S33-K434) M335A (human, UniProt Q13263 33-434, M335A); assay: as above
T3 construct: KAP1 (TRIM28), human, RBCC fragment S33-K434; source: E. coli, purified; construct generated by GenScript

[3] = target: T4, KAP1 RBCC (S33-K434) E343A (human, UniProt Q13263 33-434, E343A); assay: as above
T4 construct: KAP1 (TRIM28), human, RBCC fragment S33-K434; source: E. coli, purified; construct generated by GenScript

[4] = target: T5, KAP1 RBCC (S33-K434) L376A (human, UniProt Q13263 33-434, L376A); assay: as above
T5 construct: KAP1 (TRIM28), human, RBCC fragment S33-K434; source: E. coli, purified; construct generated by GenScript

[5] = target: T6, KAP1 RBCC (S33-K434) I379A (human, UniProt Q13263 33-434, I379A); assay: as above
T6 construct: KAP1 (TRIM28), human, RBCC fragment S33-K434; source: E. coli, purified; construct generated by GenScript

[6] = target: T7, KAP1 RBCC (S33-K434) V380A (human, UniProt Q13263 33-434, V380A); assay: as above
T7 construct: KAP1 (TRIM28), human, RBCC fragment S33-K434; source: E. coli, purified; construct generated by GenScript

[7] = target: T1, FLAG-SMARCAD1, full-length, wild type, …; assay: co-IP; purified full-length SMARCAD1 and KAP1 from E. coli, 7μg of each in 280μL SK binding buffer, 200mM NaCl, 4°C; immunoprecipitated overnight with anti-FLAG M2 affinity gel

T5 sequence (Q13263 33-434 L376A): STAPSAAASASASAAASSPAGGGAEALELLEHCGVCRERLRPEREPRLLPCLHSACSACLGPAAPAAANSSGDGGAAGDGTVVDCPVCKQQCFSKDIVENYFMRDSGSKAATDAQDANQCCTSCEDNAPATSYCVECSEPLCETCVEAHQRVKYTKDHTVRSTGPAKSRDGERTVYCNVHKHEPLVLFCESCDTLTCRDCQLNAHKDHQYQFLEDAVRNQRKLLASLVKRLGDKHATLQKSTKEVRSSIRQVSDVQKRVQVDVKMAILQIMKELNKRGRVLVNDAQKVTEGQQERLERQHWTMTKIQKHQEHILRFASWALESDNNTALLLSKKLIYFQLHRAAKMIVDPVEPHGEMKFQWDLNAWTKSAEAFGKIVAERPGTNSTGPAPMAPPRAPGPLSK
T7 sequence (Q13263 33-434 V380A): as the sequence (Q13263 33-434 L376A) above, with A344L, V348A counted along it
T4 sequence (Q13263 33-434 E343A): as the sequence (Q13263 33-434 L376A) above, with E311A, A344L counted along it
T3 sequence (Q13263 33-434 M335A): as the sequence (Q13263 33-434 L376A) above, with M303A, A344L counted along it
T6 sequence (Q13263 33-434 I379A): as the sequence (Q13263 33-434 L376A) above, with A344L, I347A counted along it

Binder	binding result [1]	other results
B1	binds	binding result [2]: binds; binding result [3]: binds; binding result [4]: binds; binding result [5]: binds; binding result [6]: binds
B2	binds	
B3	binds	
B4	binds	
B5	binds	
B6	binds	
B7	binds	
B8		binding result [7]: binds
B9	binds	
B10	binds	
